Experimental data: patent publication US20240239878A1 (SHANGHAI QILU PHARMACEUTICAL RESEARCH AND DEVELOPMENT CENTRE, published 2024)

Tests used:
[1] = biological target: T1, human DLL3 antigen protein (Kactus Biosystems, Cat. No. DLL-HM103) (human, UniProt Q9NYJ7 27-492); experiment: SPR (Biacore 8K), antibody captured on anti-human Fc, DLL3 in solution
T1 sequence: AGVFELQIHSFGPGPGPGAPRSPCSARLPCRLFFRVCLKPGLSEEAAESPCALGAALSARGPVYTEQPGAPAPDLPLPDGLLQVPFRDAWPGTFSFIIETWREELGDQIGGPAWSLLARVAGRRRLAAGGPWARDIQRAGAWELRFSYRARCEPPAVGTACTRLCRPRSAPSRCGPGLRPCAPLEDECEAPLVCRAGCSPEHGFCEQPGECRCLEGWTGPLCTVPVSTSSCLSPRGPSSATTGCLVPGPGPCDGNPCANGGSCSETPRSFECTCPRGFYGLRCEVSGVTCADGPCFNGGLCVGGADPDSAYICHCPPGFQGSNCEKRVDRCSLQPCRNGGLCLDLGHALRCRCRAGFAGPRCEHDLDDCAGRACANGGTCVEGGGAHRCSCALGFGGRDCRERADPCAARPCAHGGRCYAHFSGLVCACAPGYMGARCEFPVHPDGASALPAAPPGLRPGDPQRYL
Protocol: The affinity and kinetic properties of the humanized anti-DLL3 antibody to human DLL3 were analyzed using a Biacore 8K instrument. CM5 chips were activated with EDC and NHS, followed by immobilization of anti-human Fc murine mAb and blocked with ethanolamine.
Human DLL3 was diluted two-fold serially to serial concentrations (100 nM-0.39 nM) and associated for 90 s and dissociated for 600 s at a flow rate of 50 μL/min.
After completion of each cycle of the experiment, the captured antibody was removed together with the antigen by washing with a 3M MgCl₂ solution at a flow rate of 30 μL/min for 30 s to complete the regeneration of the chip. The raw data were analyzed using Biacore Insight Evaluation Software (3.0.12.15655) software and fitted with a (1:1) Langmuir model.

[2] = biological target: T2, human DLL3 on SHP-77 cells (human, UniProt Q9NYJ7 27-618); experiment: flow cytometry, SHP-77 cells
T2 construct: also called DLL3-expressing cells (SHP-77)
T2 sequence: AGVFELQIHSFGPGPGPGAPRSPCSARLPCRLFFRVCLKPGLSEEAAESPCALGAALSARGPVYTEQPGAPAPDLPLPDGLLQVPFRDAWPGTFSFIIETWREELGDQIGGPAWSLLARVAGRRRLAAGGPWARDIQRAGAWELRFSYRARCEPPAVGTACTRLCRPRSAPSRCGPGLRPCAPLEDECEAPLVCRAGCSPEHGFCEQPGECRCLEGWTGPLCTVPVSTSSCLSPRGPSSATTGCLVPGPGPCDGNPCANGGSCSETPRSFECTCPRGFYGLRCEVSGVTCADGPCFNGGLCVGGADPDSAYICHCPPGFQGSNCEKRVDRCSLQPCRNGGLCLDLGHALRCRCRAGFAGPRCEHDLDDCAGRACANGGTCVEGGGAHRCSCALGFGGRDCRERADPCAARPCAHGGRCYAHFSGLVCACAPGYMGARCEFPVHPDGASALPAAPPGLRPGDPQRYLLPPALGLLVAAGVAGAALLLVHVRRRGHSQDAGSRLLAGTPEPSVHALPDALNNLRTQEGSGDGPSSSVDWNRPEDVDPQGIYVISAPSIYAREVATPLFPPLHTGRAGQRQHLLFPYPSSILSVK
Protocol: SHP-77 and HEK293-cyno DLL3 cells were cultured. The culture medium for SHP-77 cells were RPMI1640+10% FBS, and the culture medium for HEK293 cyno DLL3 cells were DMEM+10% FBS+200 μg/ml Hygromycin. The cells were cultured in a T75 cell culture flask at a 37° C. 5% CO₂ incubator. When using cells, they are washed with sterile DPBS, digested with 0.25% trypsin EDTA for about 5 minutes, and then stopped with a complete medium.
The digested cells were centrifuged at 1000 rpm for 5 min at room temperature. The supernatant was discarded and the cells were resuspended in 100 μL of 1% BSA (in PBS). The cells were counted and adjusted to a cell density of 1E6/m. The dilute cells were seeded in a 96-well round-bottom culture plate (corning 3799), and centrifuged at 1500 rpm for 5 min at 4° C. The supernatant was discarded and the cells were stored at 4° C. until use. Antibody samples to be tested were diluted with 1% BSA (in PBS) at a starting concentration of 100 nM, downwards by a 10-fold gradient for 7 concentrations. The cells were resuspended with the diluted antibody at 100 μL/well and incubated for 1 hour at 4° C. The cells were centrifuged at 1500 rpm for 5 minutes at 4° C. and the supernatant was discarded. The cells were resuspended and washed with 160 μL of 1% BSA (in PBS), centrifuged at 1500 rpm for 5 minutes at 4° C. The supernatant was discarded. The secondary antibody (goat anti human IgG Fc PE) was diluted 1:200 with 1% BSA (in PBS) according to the manufacturer's instructions and the cells were resuspended with the diluted secondary antibody, 100 μL/well, and incubated for 0.5 h at 4° C. The cells were centrifuged at 1500 rpm for 5 minutes at 4° C. and the supernatant was discarded. The cells were resuspended and washed with 160 μL of 1% BSA (in PBS), centrifuged at 1500 rpm for 5 minutes at 4° C. The supernatant was discarded. The cells were resuspended in 100 μL of 1% BSA (in PBS), and filtered across a 300 mesh gauze. The mean fluorescence intensity of the PE channels was measured by flow cytometry.
The analyzed mean fluorescence intensity was imported into Graphpad to analyze the median-binding concentration (hereinafter referred to as EC50) of antibody and cell and the top mean fluorescence intensity (Top MFI).

Binder	Kd [1]	koff [1]	kon [1]	EC50 [2]	Top MFI [2]
hDLL3-3-1 camelid-derived humanized anti-DLL3 antibody (antibody, human IgG1, V domains shown) VH: EVQLVESGGGLVQPGGSLRLSCAASTYTISSGYMGWFRQAPGKEREGVAAIYIGGSTTLYADSVKGRFTISRDNSKNTLYLQMNSLRAEDTAVYYCAAQLRPNSAYHPLDGRKYNYWGQGTLVTVSS	304 pM	0.00058 s⁻¹	1.91e+06 M⁻¹ s⁻¹	86 pM	702 MFI
hDLL3-3-2 camelid-derived humanized anti-DLL3 antibody (antibody, V domains shown) VH: EVQLVESGGGLVQPGGSLRLSCKSPTYTISSGYMGWFRQAPGKEREGVAAIYIGGSTTLYADSVKGRFTISRDNSKNTLYLQMNSLRAEDTAVYYCAAQLRPNSAYHPLDGRKYNYWGQGTLVTVSS	399 pM	0.000776 s⁻¹	1.95e+06 M⁻¹ s⁻¹	49 pM	691 MFI
DLL3-26 camelid-derived anti-DLL3 chimeric antibody (antibody, human IgG1, V domains shown) VH: QVQLVESGGGSVQAGGSLRLSCAASGDIYSSSYVGWFRQAPGKEREGVAIIYTSGDSTYYANSVKGRFTISQDKAKKTLYLQMNSLKPEDTAMYYCAARFAIDNSNYWGQGTQVTVSS	32.2 pM	1.23e-05 s⁻¹	382000 M⁻¹ s⁻¹	499 pM	841 MFI
hDLL3-26 camelid-derived humanized anti-DLL3 antibody (antibody, V domains shown) VH: EVQLVESGGGLVQPGGSLRLSCAASGDIYSSSYVGWFRQAPGKEREGVAIIYTSGDSTYYADSVKGRFTISRDNSKNTLYLQMNSLRAEDTAVYYCAARFAIDNSNYWGQGTLVTVSS	1690 pM	0.000355 s⁻¹	210000 M⁻¹ s⁻¹	786 pM	696 MFI
DLL3-3 camelid-derived anti-DLL3 chimeric antibody (antibody, human IgG1, V domains shown) VH: DVQLVESGGGSVQAGGSLKLSCKSPTYTISSGYMGWFRQAPGKEREGVAAIYIGGSTTLYADSVKGRFTISADNAEKTVYLQMNTLKPEDSAMYYCAAQLRPNSAYHPLDGRKYNYWGQGTQVTVSS	127 pM	0.000274 s⁻¹	2.15e+06 M⁻¹ s⁻¹	61 pM	864 MFI
DLL3-122 camelid-derived anti-DLL3 chimeric antibody (antibody, human IgG1, V domains shown) VH: QVQLVESGGGSVQAGGSLRLSCTASGDTYRSYCMGWFRKAPGKEREGVADIVSDGSTSYADSVKGRFTISKDNAKNTLYLQMNSLKPEDTAMYYCAVDRGGSGGYCYTGRYDYWGQGTQVTVSS	4210 pM	0.000392 s⁻¹	93200 M⁻¹ s⁻¹	478 pM	877 MFI
hDLL3-122 camelid-derived humanized anti-DLL3 antibody (antibody, V domains shown) VH: EVQLVESGGGLVQPGGSLRLSCAASGDTYRSYCMGWFRQAPGKEREGVADIVSDGSTSYADSVKGRFTISRDNSKNTLYLQMNSLRAEDTAVYYCAVDRGGSGGYCYTGRYDYWGQGTLVTVSS	4730 pM	0.000466 s⁻¹	98500 M⁻¹ s⁻¹	589 pM	778 MFI
